The source of these data is US20220363757A1 (SYMPHOGEN A S, published 2022).

Common to all, as to assay: SPR, Fab over captured mutant LAG-3-Fc;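 further: fc fusion variants captured on anti-human IgG Fc sensor, Fab injected with association then dissociation phases, KD obtained from Langmuir one-to-one fit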
The target in assay [1] is T1, human LAG-3 domain 1-2 Fc fusion, point mutation #28 A81S (human, UniProt P18627 23-266).
T1 construct: not shown: human IgG1 Fc, AA P101-K330
T1 sequence: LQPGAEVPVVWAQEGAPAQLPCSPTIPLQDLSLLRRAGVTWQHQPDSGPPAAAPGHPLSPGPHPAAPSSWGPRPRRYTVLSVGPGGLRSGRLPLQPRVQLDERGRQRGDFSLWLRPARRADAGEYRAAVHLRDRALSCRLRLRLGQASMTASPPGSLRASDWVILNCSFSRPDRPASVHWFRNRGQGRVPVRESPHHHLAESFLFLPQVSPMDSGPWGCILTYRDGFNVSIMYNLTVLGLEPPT

For assay [2], the target named is T2, human LAG-3 domain 1-2 Fc fusion, point mutation #33 P86A (human, UniProt P18627 23-266).
T2 construct: not shown: human IgG1 Fc, AA P101-K330
T2 sequence: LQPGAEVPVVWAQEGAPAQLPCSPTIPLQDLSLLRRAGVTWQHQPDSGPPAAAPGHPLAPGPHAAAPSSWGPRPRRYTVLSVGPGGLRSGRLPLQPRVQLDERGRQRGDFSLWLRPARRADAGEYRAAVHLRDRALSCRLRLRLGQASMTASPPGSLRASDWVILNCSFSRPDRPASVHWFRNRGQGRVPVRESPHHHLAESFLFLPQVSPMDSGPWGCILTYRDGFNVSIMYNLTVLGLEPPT

The target of assay [3] is T3, human LAG-3 domain 1-2 Fc fusion, point mutation #71 D131A (human, UniProt P18627 23-266).
T3 construct: not shown: human IgG1 Fc, AA P101-K330
T3 sequence: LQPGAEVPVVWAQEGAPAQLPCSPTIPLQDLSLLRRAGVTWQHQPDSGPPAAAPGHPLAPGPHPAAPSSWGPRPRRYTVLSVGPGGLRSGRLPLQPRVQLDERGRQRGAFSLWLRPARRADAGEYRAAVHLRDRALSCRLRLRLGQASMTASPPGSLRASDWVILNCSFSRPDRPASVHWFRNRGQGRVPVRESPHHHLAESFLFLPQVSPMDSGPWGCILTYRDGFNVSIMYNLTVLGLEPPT

In assay [4] the target is T4, human LAG-3 domain 1-2 Fc fusion, point mutation #3 P43A (human, UniProt P18627 23-266).
T4 construct: not shown: human IgG1 Fc, AA P101-K330
T4 sequence: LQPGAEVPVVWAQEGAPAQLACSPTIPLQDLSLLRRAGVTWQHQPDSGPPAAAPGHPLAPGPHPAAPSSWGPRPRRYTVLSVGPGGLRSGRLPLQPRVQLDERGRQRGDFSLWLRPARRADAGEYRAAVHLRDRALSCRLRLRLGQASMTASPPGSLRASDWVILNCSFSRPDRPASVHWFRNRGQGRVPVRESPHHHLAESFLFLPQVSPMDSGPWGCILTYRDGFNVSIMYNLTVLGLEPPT

The target in assay [5] is T5, human LAG-3 domain 1-2 Fc fusion, point mutation #50 P106A (human, UniProt P18627 23-266).
T5 construct: not shown: human IgG1 Fc, AA P101-K330
T5 sequence: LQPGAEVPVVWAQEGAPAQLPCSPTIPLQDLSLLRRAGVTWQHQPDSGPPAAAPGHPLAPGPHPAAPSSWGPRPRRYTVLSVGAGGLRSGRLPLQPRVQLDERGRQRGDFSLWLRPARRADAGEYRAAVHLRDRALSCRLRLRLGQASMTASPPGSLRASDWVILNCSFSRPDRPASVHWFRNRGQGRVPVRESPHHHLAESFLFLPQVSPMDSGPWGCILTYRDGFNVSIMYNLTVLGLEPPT

Assay [6] deals with T6, human LAG-3 domain 1-2 Fc fusion, point mutation #73 R137A (human, UniProt P18627 23-266).
T6 construct: not shown: human IgG1 Fc, AA P101-K330
T6 sequence: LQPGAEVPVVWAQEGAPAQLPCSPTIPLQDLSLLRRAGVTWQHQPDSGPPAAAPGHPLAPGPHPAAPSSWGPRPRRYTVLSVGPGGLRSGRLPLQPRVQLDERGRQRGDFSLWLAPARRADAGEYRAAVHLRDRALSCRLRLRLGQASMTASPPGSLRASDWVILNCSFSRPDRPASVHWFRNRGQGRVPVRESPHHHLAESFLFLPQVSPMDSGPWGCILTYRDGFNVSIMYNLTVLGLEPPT

For assay [7], the target named is T7, human LAG-3 domain 1-2 Fc fusion, point mutation #78 R154A (human, UniProt P18627 23-266).
T7 construct: not shown: human IgG1 Fc, AA P101-K330
T7 sequence: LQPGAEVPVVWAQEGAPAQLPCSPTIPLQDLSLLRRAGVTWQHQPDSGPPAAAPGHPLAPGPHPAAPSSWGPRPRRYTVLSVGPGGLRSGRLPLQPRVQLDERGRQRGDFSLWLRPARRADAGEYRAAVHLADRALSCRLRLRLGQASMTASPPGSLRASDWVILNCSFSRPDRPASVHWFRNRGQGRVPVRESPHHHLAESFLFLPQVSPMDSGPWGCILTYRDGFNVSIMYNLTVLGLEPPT

Assay [8] has as its target T8, human LAG-3 domain 1-2 Fc fusion, point mutation #25 H78A (human, UniProt P18627 23-266).
T8 construct: not shown: human IgG1 Fc, AA P101-K330
T8 sequence: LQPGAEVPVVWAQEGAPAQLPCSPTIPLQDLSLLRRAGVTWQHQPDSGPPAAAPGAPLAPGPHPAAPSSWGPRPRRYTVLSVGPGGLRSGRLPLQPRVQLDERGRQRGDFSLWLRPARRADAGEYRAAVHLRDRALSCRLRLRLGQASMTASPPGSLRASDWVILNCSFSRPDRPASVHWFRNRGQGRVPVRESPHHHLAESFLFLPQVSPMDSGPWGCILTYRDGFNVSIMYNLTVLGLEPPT

The target of assay [9] is T9, human LAG-3 domain 1-2 Fc fusion, point mutation #80 R163A (human, UniProt P18627 23-266).
T9 construct: not shown: human IgG1 Fc, AA P101-K330
T9 sequence: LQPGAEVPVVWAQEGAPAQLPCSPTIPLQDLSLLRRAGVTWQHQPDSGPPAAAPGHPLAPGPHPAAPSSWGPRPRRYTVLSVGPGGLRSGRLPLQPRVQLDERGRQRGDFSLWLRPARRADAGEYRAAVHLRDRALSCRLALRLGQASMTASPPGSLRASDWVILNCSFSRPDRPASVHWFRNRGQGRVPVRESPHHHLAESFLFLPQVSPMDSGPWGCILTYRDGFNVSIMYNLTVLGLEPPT

B1: Fab fragment of antibody 15011 (Fab, V domains shown, not shown: a dimerising Fc or GST)
VH: EVQLLESGGGLVQPGGSLRLSCAASGFDFRSYAMMWVRQAPGKGLEWVGGINGEVGGSNTYYAPAVKGRATISRDNSKNTLYLQMNSLRAEDTAVYYCVKGAGACGICNDDIDAWGQGTLVTVSS
VL: SYELTQDPAVSVALGQTVRITCSGAGSYAGSYYYGWHQQKPGQAPVTVIYDNDKRPSNIPDRFSGSSSGNTASLTITGAQAEDEADYYCGSTNDNDDGGLFGSGTKVTVLG
notes: monomeric Fab made by GingisKHAN digestion of the IgG1
With B1, the “KD mutant/KD wild type” value in assay [1] came to 0.8 fold; in assay [2] it was 0.7 fold; in assay [3], 0.6 fold; in assay [4] it was 0.6 fold; in assay [5], 4.6 fold; in assay [6], 0.6 fold. Besides, the “KD mutant/KD wild type” value came to 1.2 fold in assay [7], 0.7 fold in assay [8] and 0.6 fold in assay [9].

B2: Fab fragment of antibody 15572 (Fab, V domains shown, not shown: a dimerising Fc or GST)
VH: QLQLQESGPGLVKPSETLSLTCTVSGDSISSSSYYWGWIRQPPGKGLEWIGSIFYSGNTYYNPSLKSRVTISVDTSKNQFSLKLSSVTAADTAVYYCAREDDFLTDYYGAFDIWGQGTMVTVSS
VL: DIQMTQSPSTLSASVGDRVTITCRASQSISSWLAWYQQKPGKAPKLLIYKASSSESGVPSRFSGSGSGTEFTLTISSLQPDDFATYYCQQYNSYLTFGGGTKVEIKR
notes: as for B1
Consider B2, for which the “KD mutant/KD wild type” value stood at 0.6 fold in assay [1], 0.7 fold in assay [2], 0.8 fold in assay [7] and 0.5 fold in [8]. Further, the binding result in assay [3], in assay [4], in [5], in [6] and in [9] was “no binding (tested: 300 nM)” each time.

B3: Fab fragment of antibody 15532 (Fab, V domains shown, not shown: a dimerising Fc or GST)
VH: QVQLQQWGAGLLRPSETLSLTCAVYGESFSGYYWNWIRQPPGKGLEWIGEINHSGSTNYNPSLKSRVTISVDTSKTQFSLKLSSVTAADTAVYYCARGWDLLDWNDYWNEYWGQGTLVTVSS
VL: EIVLTQSPATLSLSPGERATLSCRASQSVSSYLAWYQQKPGQAPRLLIYDASNRATGIPARFSGSGSGTDFTLTISSLEPEDFAVYYCQQRSNWPLTFGGGTKVEIKR
notes: as for B1
As to B3, the “KD mutant/KD wild type” value in [1] amounted to 0.6 fold; in [2] it was 6.1 fold; in assay [3] it was 4.2 fold; in [4], 3.8 fold; in assay [5], 2.7 fold; in assay [6], 3.6 fold. Besides, the “KD mutant/KD wild type” value came out at 0.8 fold in [7], 0.9 fold in assay [8] and 2.5 fold in [9].

B4: Fab fragment of antibody 15431 (Fab, V domains shown, not shown: a dimerising Fc or GST)
VH: QVQLQQSGPGLVKPSQTLSLTCAISGDSVSSNSAAWNWIRQSPSRGLEWLGRTYYRSKWYNDYAVSVKSRITINPDTSKNQFSLQLNSVTPEDTAVYYCARDDDWNDFDYWGQGTLVTVSS
VL: EIVLTQSPATLSLSPGERATLSCRASQSVSSYLAWYQQKPGQAPRLLIYDASNRATGIPARFSGSGSGTDFTLTISSLEPEDFAVYYCQQRSNWPLTFGGGTKVEIKR
notes: as for B1
On to B4, for which the “KD mutant/KD wild type” value in assay [1] turned out to be 0.6 fold; in assay [2], 0.6 fold; in [7], 1 fold; in assay [8] it was 0.4 fold. Besides, the binding result in [3], in assay [4], in [5], in [6] and in assay [9] was “no binding (tested: 300 nM)” throughout.
